Reference: patent CN113501872A (INST PATHOGEN BIOLOGY CAMS, dated 2021)

Target: SARS-CoV-2刺突蛋白RBD区重组蛋白 (SARS-CoV-2, UniProt P0DTC2 319-541)
Assay: indirect ELISA, RBD protein coated, Fab supernatant

B1: 人源抗SARS-CoV-2病毒Fab抗体SK1 (Fab, V domains shown)
VH: EVQLVESGGGLVQPGRSLRLSCAASGFIFDDYAMHWVRQAPGKGLEWVSGISWNSGTIGYADSVKGRFIISRDNAKNSLYLQLNRLGVEDTALYYCVKDIYYRDRNLGFAFDIWGQGTMVTVSS
VL: DIQLTQSPSSLSASIGDTVTITCRASQSIDNYLHWYQKKPGIAPKLLISATSTLENGVPSRFSGSRSGTDFTLTISSLQIEDFATYYCQQGHSVPLTFGGGTKLEVR
notes: also called SK1 Fab
binding result: binds
